Assay results: PMC8809517, “Cofactor-independent RNA editing by a synthetic S-type PPR protein”
Changes are numbered by the printed parent chain.

T1: GFP-9S library array, motif 4 ND N98T (synthetic construct, N98T)
T1 chain: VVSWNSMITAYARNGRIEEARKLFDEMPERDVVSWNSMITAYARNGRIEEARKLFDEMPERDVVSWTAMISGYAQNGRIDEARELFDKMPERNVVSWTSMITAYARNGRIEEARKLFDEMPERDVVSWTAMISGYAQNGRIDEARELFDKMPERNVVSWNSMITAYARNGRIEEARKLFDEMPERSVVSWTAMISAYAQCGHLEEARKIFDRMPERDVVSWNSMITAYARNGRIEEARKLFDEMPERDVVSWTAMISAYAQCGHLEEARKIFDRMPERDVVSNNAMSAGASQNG

T2: GFP-9S library array, motif 4 ND N98C;D124P (synthetic construct, N98C;D124P)
T2 chain: T1 chain with T98C, D124P

T3: GFP-9S library array, motif 4 ND N98S;D124N (synthetic construct, N98S;D124N)
T3 chain: T1 chain with T98S, D124N

T4: GFP-9S library array, motif 4 ND N98D;D124L (synthetic construct, N98D;D124L)
T4 chain: T1 chain with T98D, D124L

T5: GFP-9S library array, motif 4 ND N98R;D124S (synthetic construct, N98R;D124S)
T5 chain: T1 chain with T98R, D124S


Experiments:
Test in all cases: high-throughput RNA pulldown from lysate on Ni-NTA beads; HRP: 50 mM Tris pH 8, 150 mM NaCl, 1 mM beta-mercaptoethanol, 50 ug/ml BSA, 3 ug/ml yeast RNA, 0.5% heparin; ITC and FP: Tris pH 8, 200 mM KCl, 5% glycerol; MST: 50 mM Tris pH 8, 200 mM NaCl, 1 mM DTT, BSA, heparin, 0.05% Tween 20
Conditions in all cases: tags: N-terminal His-eGFP
[1] = molecular target: T1, GFP-9S library array, motif 4 ND N98T
[2] = molecular target: T2, GFP-9S library array, motif 4 ND …
[3] = molecular target: T3, GFP-9S library array, motif 4 ND …
[4] = molecular target: T4, GFP-9S library array, motif 4 ND …
[5] = molecular target: T5, GFP-9S library array, motif 4 ND …

Binder	Kd ([1]; label: 5' IRDye 800CW)	Kd ([2]; label: 5' IRDye 800CW)	Kd ([3]; label: 5' IRDye 800CW)	Kd ([4]; label: 5' IRDye 800CW)	Kd ([5]; label: 5' IRDye 800CW)	Kd ([1]; label: 5' Cy5)	Kd ([2]; label: 5' Cy5)	Kd ([3]; label: 5' Cy5)	Kd ([4]; label: 5' Cy5)	Kd ([5]; label: 5' Cy5)
AUUAUACGUGA (ssRNA) [IR-rpoA-U]	23 nM	351 nM	272 nM	408 nM	88.9 nM	–	–	–	–	–
AUUAGACGUGA (ssRNA) [Cy5-rpoA-G]	–	–	–	–	–	5.06 nM	321 nM	296 nM	52.3 nM	93.6 nM
AUUACACGUGA (ssRNA) [Cy5-rpoA]	–	–	–	–	–	97.5 nM	272 nM	235 nM	133 nM	72.7 nM
AUUAAACGUGA (ssRNA) [IR-rpoA-A]	91.7 nM	263 nM	50.8 nM	90.5 nM	184 nM	–	–	–	–	–
